How the values were obtained:
MS2 coat protein [1] = assay: apparent KD of MS2 coat protein, switch OFF state (with FMN for OFF switches, without FMN for ON switches); designed switch direction (-1 OFF switch, 1 ON switch): -1; higher = weaker reporter binding; conditions: FMN input: 0 or 200 uM; Eterna round: R93 (includes R88 designs)
Method in brief: (§1)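 Designed RNA switches were transcribed on-chip from Illumina sequencing clusters. SNAP-549-labelled MS2 coat protein was titrated onto them in twofold steps from 0.7 or 1.5 nM to 3 µM in 100 mM Tris-HCl pH 7.5, 80 mM KCl, 4 mM MgCl2, either without or with constant ligand. Apparent KD reflects the per-design median of normalised cluster binding-curve fits.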

MS2 coat protein [2] = assay: apparent KD of MS2 coat protein, switch ON state; designed switch direction (-1 OFF switch, 1 ON switch): -1; higher = weaker reporter binding; conditions: FMN input: 0 or 200 uM; Eterna round: R93 (includes R88 designs)
Method in brief: as §1

Sequence	apparent KD of MS2 coat protein (MS2 coat protein [1]) [nM]	apparent KD of MS2 coat protein (MS2 coat protein [2]) [nM]
AGGAAACAUGAGGAUCACCCAUGUGAGGAUAUUGAAAAGAAAAGAAAAGAAAGAAGAACAAGAAGGCACAAGAA [Tiu]	31.5	29.6
AGGAAACAUGAGGAUCACCCAUGUUAGGAUAUGAACGAAAUAAAAUAAAAAUAAAAGUUCAGAAGGGACAAAAA [Mat - Exclusion 1 - Eli mod - D20]	49.6	24.9
AGGGUACAUGAGGAUCACCCAUGUUAGGAUAUUGAAAAGAAAAGAAAAGAAAGAAGAACAAGAAGGGACAAGAA [Userkare]	45.7	56.5
AGUAAACAUGAGGAUCACCCAUGUGAGGAUAUCGAAAAGAAAAGAAAAGAAAGAAGAAUGAGAAGGCACAAGAA [Huni]	37	33.3
AGUAACCAAGGAUAUACAAAACCUGUGAUCGAAUGGAUUUUACAUGAGGAUCACCCAUGUAGAAGGUGGAAAGG [Xeedce]	35	22.7
AGUAGAUCAGGAUAUACAUAAAUGAUAAUUAUGUAACUUUUACAUGAGGAUCACCCAUGUAGAAGGGAUCUACA [Ex2 Design 130: Not so Super Stable 18]	15.8	14.8
AGUAGUACAGGAUAUACAUGAGGAUCACCCAUGUGAAAAAUAAGUGGCGUACCACAAAGUAGAAGGGUACUACA [Mat - Exclusion 3 - JL mod - D37]	141	29.9
AGUAUGCGAGGAUAUACAUGAGGAUCACCCAUGUGAGAGAUAAAAGUGAGAAAGACAUGUAGAAGGCGCGUACA [JL Lego Mod 24]	27	38.9
AGUCAUACAGGAUAUACAUGAGGAUCACCCAUGUAAAUCCUAAAAAAAUGAUCCUCAUGUAGAAGGGUAUGACA [EX3 221: Super Stable 21]	14.4	16.8
AGUCAUACAGGAUAUACAUGAGGAUCACCCAUGUAUAUCCAAAAAAAAAAAUCCUCAUGUAGAAGGGUAUGACA [EX3 205: Super Stable 5]	18.7	17.1
AGUCGGCGAGGAUAUACAUGAGGAUCACCCAUGUGAGAGAAUAUAGUGAGUUAGACAAGUAGAAGGCGCUGACA [JL Lego Mod 11]	135	43.2
AGUCGGCGAGGAUAUACAUGAGGAUCACCCAUGUGAGAGCUAAAAGUGAGUCAGAAAAGUAGAAGGCGCUGACA [JL Lego Mod 6]	94.1	96.5
AGUGAGUCAGGAUAUGACUGAAGAAUAAAAGAAAUAACAAGUCAGAAGGGACAUGAGGAUCACCCAUGUACACA [May 59]	20.7	30.9
AGUGAGUGAGGAUAUGAGUGAACAACAAAACAAAUAACGACUCAGAAGGCACAUGAGGAUCACCCAUGUACACA [May 68]	22.3	24
AGUUAGUCAGGAUAUGCGUGAAGAAUAAAAGAAAUAACAACGCAGAAGGGACAUGAGGAUCACCCAUGUAAACA [May 55]	37.3	34.2
AGUUGGCGAGGAUAUACAUGAGGAUCACCCAUGUGAAAAAAGGGCUCGAAAGAGAAAAGUAGAAGGCGCUGACA [73%, Moding Norbert Elias, 7]	98.4	24.8
AGUUGGCGAGGAUAUACAUGAGGAUCACCCAUGUGAAAUCGCGAAAAAAUAGGGAAAAGUAGAAGGCGCUGACA [73%, Moding Norbert Elias, 18]	21	11
AGUUGGCGAGGAUAUACAUGAGGAUCACCCAUGUGAGAGAUAAAAGUGAGAAAGAAAAGUAGAAGGCGCUAACA [JL Lego Mod 20]	262	45.6
AGUUGGCGAGGAUAUACAUGAGGAUCACCCAUGUGAGAGUAAAAAGUGAGAAAGAGAAGUAGAAGGCGCUAACA [Ruby 53]	167	37.4
AUAAGUCGAGGAUAUACGAAAUGCUAGCGAAAGCUAGCAUAACAUGAGGAUCACCCAUGUAGAAGGCGACAAUA [Tetraloop hairpin BlockHead... 61% 3]	20.6	22.9
AUAGGGCUAGGAUAUACAUGAGGAUCACCCAUGUAAACAGAUAGAUCAAGGUAAACGAGUAGAAGGAGCAAUAA [JR_Exc003_Sub210]	18.8	19.5
AUAGUACAUGAGGAUCACCCAUGUCAGGAUAUUCGAAAUGAAAAAAAAAAAAAGUGAAGGAGAAGGGACUAUAA [EX1 Malc#12]	20.1	21.5
AUAGUACAUGAGGAUCACCCAUGUCAGGAUAUUCGAUAUGAAAAAAAAAAAAAGUUAAGGAGAAGGGACUAUAA [EX1 Malc#13]	26.1	26.1
